± gives the uncertainty stated by the source.
B1: Proto-oncogene vav, residues 782 to 842; numbered along this chain, P15498 (parent)
chain: KYFGTAKARYDFCARDRSELSLKEGDIIKILNKKGQQGWWRGEIYGRVGWFPANYVEEDYS

Variants of: B1
Assay: abundance fitness (aPCA) (normalised: wild type 0, dead -1); higher = more abundant; growth selection in yeast, the domain comes from the species named
Details: Homo sapiens

In order of falling abundance fitness:
1. KYFGTAKARYDFCARDRSELSLKEGDIIKILNKKGQQGWWRGEIYGRTGWFPANYVEEDYS  0.071 ± 0.069
2. KYFGTAKARYDFCARDRSELSLKEGDIIKILNKKGQQGWWRGEIYGRSGWFPANYVEEDYS  -0.062 ± 0.059
3. KYFGTAKARYDFCARDRSELSLKEGDIIKILNKKGQQGWWRGEIYGREGWFPANYVEEDYS  -0.07 ± 0.05
4. KYFGTAKARYDFCARDRSELSLKEGDIIKILNKKGQQGWWRGEIYGRKGWFPANYVEEDYS  -0.071 ± 0.1
5. KYFGTAKARYDFCARDRSELSLKEGDIIKILNKKGQQGWWRGEIYGRAGWFPANYVEEDYS  -0.156 ± 0.045
6. KYFGTAKARYDFCARDRSELSLKEGDIIKILNKKGQQGWWRGEIYGRVGYFPANYVEEDYS  -0.17 ± 0.11
7. KYFGTAKARYDFCARDRSELSLKEGDIIKILNKKGQQGWWRGEIYGRYGWFPANYVEEDYS  -0.177 ± 0.12
8. KYFGTAKARYDFCARDRSELSLKEGDIIKILNKKGQQGWWRGEIYGRCGWFPANYVEEDYS  -0.194 ± 0.074
9. KYFGTAKARYDFCARDRSELSLKEGDIIKILNKKGQQGWWRGEIYGRMGWFPANYVEEDYS  -0.312 ± 0.1
10. KYFGTAKARYDFCARDRSELSLKEGDIIKILNKKGQQGWWRGEIYGRVGNFPANYVEEDYS  -0.329 ± 0.14
11. KYFGTAKARYDFCARDRSELSLKEGDIIKILNKKGQQGWWRGEIYGRVGLFPANYVEEDYS  -0.341 ± 0.069
12. KYFGTAKARYDFCARDRSELSLKEGDIIKILNKKGQQGWWRGEIYGRLGWFPANYVEEDYS  -0.347 ± 0.086
13. KYFGTAKARYDFCARDRSELSLKEGDIIKILNKKGQQGWWRGEIYGRVGMFPANYVEEDYS  -0.387 ± 0.12
14. KYFGTAKARYDFCARDRSELSLKEGDIIKILNKKGQQGWWRGEIYGRHGWFPANYVEEDYS  -0.405 ± 0.14
15. KYFGTAKARYDFCARDRSELSLKEGDIIKILNKKGQQGWWRGEIYGRVAWFPANYVEEDYS  -0.433 ± 0.2
16. KYFGTAKARYDFCARDRSELSLKEGDIIKILNKKGQQGWWRGEIYGRVGVFPANYVEEDYS  -0.452 ± 0.098
17. KYFGTAKARYDFCARDRSELSLKEGDIIKILNKKGQQGWWRGEIYGRWGWFPANYVEEDYS  -0.491 ± 0.076
18. KYFGTAKARYDFCARDRSELSLKEGDIIKILNKKGQQGWWRGEIYGRVGDFPANYVEEDYS  -0.493 ± 0.15
19. KYFGTAKARYDFCARDRSELSLKEGDIIKILNKKGQQGWWRGEIYGRDGWFPANYVEEDYS  -0.499 ± 0.11
20. KYFGTAKARYDFCARDRSELSLKEGDIIKILNKKGQQGWWRGEIYGRVTWFPANYVEEDYS  -0.506 ± 0.19
21. KYFGTAKARYDFCARDRSELSLKEGDIIKILNKKGQQGWWRGEIYGRVGQFPANYVEEDYS  -0.516 ± 0.15
22. KYFGTAKARYDFCARDRSELSLKEGDIIKILNKKGQQGWWRGEIYGRVGKFPANYVEEDYS  -0.559 ± 0.15
23. KYFGTAKARYDFCARDRSELSLKEGDIIKILNKKGQQGWWRGEIYGRVGSFPANYVEEDYS  -0.584 ± 0.11
24. KYFGTAKARYDFCARDRSELSLKEGDIIKILNKKGQQGWWRGEIYGRVGRFPANYVEEDYS  -0.596 ± 0.092
25. KYFGTAKARYDFCARDRSELSLKEGDIIKILNKKGQQGWWRGEIYGRVGEFPANYVEEDYS  -0.603 ± 0.17
26. KYFGTAKARYDFCARDRSELSLKEGDIIKILNKKGQQGWWRGEIYGRVSWFPANYVEEDYS  -0.618 ± 0.14
27. KYFGTAKARYDFCARDRSELSLKEGDIIKILNKKGQQGWWRGEIYGRVGTFPANYVEEDYS  -0.645 ± 0.17
28. KYFGTAKARYDFCARDRSELSLKEGDIIKILNKKGQQGWWRGEIYGRVGAFPANYVEEDYS  -0.649 ± 0.17
29. KYFGTAKARYDFCARDRSELSLKEGDIIKILNKKGQQGWWRGEIYGRVGFFPANYVEEDYS  -0.678 ± 0.24
30. KYFGTAKARYDFCARDRSELSLKEGDIIKILNKKGQQGWWRGEIYGRVGGFPANYVEEDYS  -0.699 ± 0.11
31. KYFGTAKARYDFCARDRSELSLKEGDIIKILNKKGQQGWWRGEIYGRPGWFPANYVEEDYS  -0.733 ± 0.12
32. KYFGTAKARYDFCARDRSELSLKEGDIIKILNKKGQQGWWRGEIYGRVGIFPANYVEEDYS  -0.739 ± 0.23
33. KYFGTAKARYDFCARDRSELSLKEGDIIKILNKKGQQGWWRGEIYGRVPWFPANYVEEDYS  -0.776 ± 0.2
34. KYFGTAKARYDFCARDRSELSLKEGDIIKILNKKGQQGWWRGEIYGRVCWFPANYVEEDYS  -0.83 ± 0.49
35. KYFGTAKARYDFCARDRSELSLKEGDIIKILNKKGQQGWWRGEIYGRVQWFPANYVEEDYS  -0.838 ± 0.29
36. KYFGTAKARYDFCARDRSELSLKEGDIIKILNKKGQQGWWRGEIYGRVFWFPANYVEEDYS  -0.87 ± 0.26
37. KYFGTAKARYDFCARDRSELSLKEGDIIKILNKKGQQGWWRGEIYGRVVWFPANYVEEDYS  -0.902 ± 0.32
38. KYFGTAKARYDFCARDRSELSLKEGDIIKILNKKGQQGWWRGEIYGRVMWFPANYVEEDYS  -0.907 ± 0.45
39. KYFGTAKARYDFCARDRSELSLKEGDIIKILNKKGQQGWWRGEIYGRVKWFPANYVEEDYS  -0.92 ± 0.36
40. KYFGTAKARYDFCARDRSELSLKEGDIIKILNKKGQQGWWRGEIYGRVDWFPANYVEEDYS  -0.956 ± 0.33
41. KYFGTAKARYDFCARDRSELSLKEGDIIKILNKKGQQGWWRGEIYGRVNWFPANYVEEDYS  -0.956 ± 0.41
42. KYFGTAKARYDFCARDRSELSLKEGDIIKILNKKGQQGWWRGEIYGRVRWFPANYVEEDYS  -0.998 ± 0.27
43. KYFGTAKARYDFCARDRSELSLKEGDIIKILNKKGQQGWWRGEIYGRVLWFPANYVEEDYS  -1.01 ± 0.29
